Our source for the binding signal (fold KD vs I-RNA) values is article PMC12199146.

This series deals with T1, Endonuclease V (EcEndoV), wild-type (Escherichia coli) (UniProt P68739).
T1 sequence: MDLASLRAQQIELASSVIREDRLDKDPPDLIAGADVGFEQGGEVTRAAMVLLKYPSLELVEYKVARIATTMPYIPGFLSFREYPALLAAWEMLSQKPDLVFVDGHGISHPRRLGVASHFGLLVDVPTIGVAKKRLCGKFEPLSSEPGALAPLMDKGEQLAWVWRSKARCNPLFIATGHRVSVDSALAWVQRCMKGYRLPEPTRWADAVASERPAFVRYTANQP
Kind of series: EMSA. Particulars: 5 mM Mg2+; pattern similar to A-RNA; one inosine; EMSA: 25 mM sodium phosphate pH 6.5, 50-300 mM NaCl (500 mM in Fig. S17E), 1 mM DTT, 5 mM MgCl2, 30 min on ice, 2 pmol RNA in 10 ul, 12% native gel in TBE at ….

On to “1I-RNA (single-edited 20-mer dsRNA, one I:U pair)”, for which the binding signal (fold KD vs I-RNA) was 2.
